Measured values taken from IntAct's records for PubMed 16418290.

B1: Caspase recruitment domain-containing protein 6 (Homo sapiens), Q9BX69 (parent)
chain: MATESTPSEIIERERKKLLEILQHDPDSILDTLTSRRLISEEEYETLENVTDLLKKSRKLLILVQKKGEATCQHFLKCLFSTFPQSAAICGLRHEVLKHENTVPPQSMGASSNSEDAFSPGIKQPEAPEITVFFSEKEHLDLETSEFFRDKKTSYRETALSARKNEKEYDTPEVTLSYSVEKVGCEVPATITYIKDGQRYEELDDSLYLGKEEYLGSVDTPEDAEATVEEEVYDDPEHVGYDGEEDFENSETTEFSGEEPSYEGSETSLSLEEEQEKSIEERKKVFKDVLLCLNMDRSRKVLPDFVKQFSLDRGCKWTPESPGDLAWNFLMKVQARDVTARDSILSHKVLDEDSKEDLLAGVENLEIRDIQTINPLDVLCATMLCSDSSLQRQVMSNMYQCQFALPLLLPDAENNKSILMLGAMKDIVKKQSTQFSGGPTEDTEKFLTLMKMPVISFVRLGYCSFSKSRILNTLLSPAQLKLHKIFLHQDLPLLVLPRQISDGLVEITWCFPDSDDRKENPFFQKPVALANLRGNLESFWTQFGFLMEVSSAVFFFTDCLGEKEWDLLMFLGEAAIERCYFVLSSQARESEEAQIFQRILNLKPAQLLFWERGDAGDRRKNMEGLQAALQEVMFSSCLRCVSVEDMAALARELGIQVDEDFENTQRIQVSSGENMAGTAEGEGQQRHSQLKSSSKSQALMPIQEPGTQCELSQNLQNLYGTPVFRPVLENSWLFPTRIGGNFNHVSLKASWVMGRPFGSEQRPKWFHPLPFQNAGAQGRGKSFGIQSFHPQIFYSGERFMKFSRVARGCHSNGTFGRLPRPICQHVQACPERPQMMGTLERSRAVASKIGHSYSLDSQPARAVGKPWPQQACTRVTELTEATGKLIRTSHIGKPHPQSFQPAAATQKLRPASQQGVQMKTQGGASNPALQIGSHPMCKSSQFKSDQSNPSTVKHSQPKPFHSVPSQPKSSQTKSCQSQPSQTKPSPCKSTQPKPSQPWPPQSKPSQPRPPQPKSSSTNPSQAKAHHSKAGQKRGGKH

Variants of: B1
Conditions: with ripk2_human RIPK2, O43353
Chain of ripk2_human RIPK2, O43353 (O43353 whole entry): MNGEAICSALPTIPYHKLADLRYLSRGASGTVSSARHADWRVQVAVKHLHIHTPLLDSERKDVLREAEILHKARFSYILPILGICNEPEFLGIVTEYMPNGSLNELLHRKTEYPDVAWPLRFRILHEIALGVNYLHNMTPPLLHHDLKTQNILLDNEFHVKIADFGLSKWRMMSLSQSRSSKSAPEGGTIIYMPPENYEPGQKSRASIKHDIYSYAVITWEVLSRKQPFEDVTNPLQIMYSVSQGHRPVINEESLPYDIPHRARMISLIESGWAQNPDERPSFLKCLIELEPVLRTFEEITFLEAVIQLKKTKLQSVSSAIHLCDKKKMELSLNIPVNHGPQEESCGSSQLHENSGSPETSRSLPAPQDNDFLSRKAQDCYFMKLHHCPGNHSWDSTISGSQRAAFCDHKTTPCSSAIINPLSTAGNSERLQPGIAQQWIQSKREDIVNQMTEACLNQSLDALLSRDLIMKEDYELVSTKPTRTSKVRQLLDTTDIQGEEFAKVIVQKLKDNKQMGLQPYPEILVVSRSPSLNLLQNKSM

effect of a mutation on the interaction | Variant
increasing interaction strength | L30R;D31N;L33R
